Source: publication PMC11046646, “Tight-packing of large pilin subunits provides distinct structural and mechanical properties for the Myxococcus xanthus type IVa pilus” (Proceedings of the National Academy of Sciences of the …, 2024)

Target: the molecule itself
Assay: cryo-EM structure; T4aP^Mx filaments purified from the hyperpiliated ΔpilT strain; helical reconstruction, twist 100.7°, rise 10 Å per subunit, 3.0 Å

B1: major pilin PilA of Myxococcus xanthus (mature PilA, MXAN_5783) (natural protein, UniProt Q59589 13-220, looked up)
chain: FTLIELMIVVAIIGILAAIAIPNFIKFQARSKQSEAKTNLKALYTAQKSFFSEKDRYSDFANEIGFAPERGNRYGYRVSAAAGDCEVRNAADLPVPAAGVPCISNDSFRFGANSAIDDPTPVVARFVPQGAAGWNTTLGVQPTIADCPNCNFFAGARGNADNEATFDDWVIAGFEGSGQVGPCSEAGNVASGTPYNTRNDVACDGAAQ
notes: PilA, major type IVa pilin of Myxococcus xanthus, MXAN_5783; mature pilin of 208 aa after removal of the type III signal peptide by PilD; numbers count on: the mature protein; Assembled as the T4aP filament of thousands of copies; Disulfide bridges C95/C102 and C183/C203; the authors speculate that surface-exposed C150 is post-translationally modified; also called PilA^WT; Mx PilA; source: …
Q: Does B1 bind?
A: binds
